US20130337579, “Methods for Determining Protein Ligand Binding” (UNIVERSITY OF MARYLAND, COLLEGE PARK, published 2013)

Columns and labels:
[1] = molecular target: CRP (catabolite activator protein, cAMP receptor protein) (Escherichia coli, UniProt P0ACJ8 P0ACJ8:2-210); assay: DRaCALA; 100 nM CRP, 4 nM probe, 200 uM cAMP; conditions: tags: His-CRP expressed from pBAD-CRP, Ni-NTA and anion exchange; chain copies: 2; label: 5'-32P
[2] = molecular target: MBP (maltose binding protein) (UniProt P0AEX9 P0AEX9:27-396); assay: DRaCALA; 100 nM MBP, 4 nM probe, 200 uM cAMP

Chain of CRP (catabolite activator protein, cAMP receptor protein) (P0ACJ8 2-210, one chain of several): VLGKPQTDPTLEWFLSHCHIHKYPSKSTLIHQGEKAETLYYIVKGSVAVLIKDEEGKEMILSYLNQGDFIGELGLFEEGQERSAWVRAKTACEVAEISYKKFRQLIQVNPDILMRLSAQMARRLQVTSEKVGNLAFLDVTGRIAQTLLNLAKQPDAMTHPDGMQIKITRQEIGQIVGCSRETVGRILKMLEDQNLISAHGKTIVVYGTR

B1: 10:G-C oligo duplex (gd130/gd131) (dsDNA)
DNA 1: AGGAGGAATAAATGTCATCTAGATGACATTTTAGAGGAGG
DNA 2: CCTCCTCTAAAATGTCATCTAGATGACATTTATTCCTCCT
binding result [1]: no binding

B2: 8,10:G-C oligo duplex (gd132/gd133) (dsDNA)
DNA 1: AGGAGGAATAAATCTCATCTAGATGAGATTTTAGAGGAGG
DNA 2: CCTCCTCTAAAATCTCATCTAGATGAGATTTATTCCTCCT
binding result [1]: no binding

B3: ICAP oligo duplex (gd126/gd127) (dsDNA)
DNA 1: AGGAGGAATAAATGTGATCTAGATCACATTTTAGAGGAGG
DNA 2: CCTCCTCTAAAATGTGATCTAGATCACATTTATTCCTCCT
binding result [2]: no binding
